Experimental data as given in patent publication US20190077860A1 (EISAI R AND D MANAGEMENT, published 2019).
Numbering of substitutions follows the chain as printed.

T1: human EphA6 extracellular region-SEAP-His protein (human, UniProt Q9UF33 23-550)
T1 construct: extracellular domain; also called hEphA6-SEAP-His
T1 sequence (looked up): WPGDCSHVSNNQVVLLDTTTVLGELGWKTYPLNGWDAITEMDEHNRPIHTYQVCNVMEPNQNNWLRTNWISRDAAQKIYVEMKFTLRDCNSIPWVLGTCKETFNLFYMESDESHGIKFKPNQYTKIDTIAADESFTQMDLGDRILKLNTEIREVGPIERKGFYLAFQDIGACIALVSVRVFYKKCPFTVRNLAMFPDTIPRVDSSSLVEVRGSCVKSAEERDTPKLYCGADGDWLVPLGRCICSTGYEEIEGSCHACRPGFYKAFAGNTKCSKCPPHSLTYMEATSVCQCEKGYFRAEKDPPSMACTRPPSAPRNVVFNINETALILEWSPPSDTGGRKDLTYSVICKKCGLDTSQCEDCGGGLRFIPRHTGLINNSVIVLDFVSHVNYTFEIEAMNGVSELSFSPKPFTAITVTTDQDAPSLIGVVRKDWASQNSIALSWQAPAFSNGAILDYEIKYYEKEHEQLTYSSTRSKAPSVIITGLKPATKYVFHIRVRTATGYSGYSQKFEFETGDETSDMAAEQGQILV

T2: human EphA1 extracellular region-SEAP-His protein (human, UniProt P21709 26-547)
T2 construct: extracellular domain; also called hEphA1-SEAP-His
T2 sequence (looked up): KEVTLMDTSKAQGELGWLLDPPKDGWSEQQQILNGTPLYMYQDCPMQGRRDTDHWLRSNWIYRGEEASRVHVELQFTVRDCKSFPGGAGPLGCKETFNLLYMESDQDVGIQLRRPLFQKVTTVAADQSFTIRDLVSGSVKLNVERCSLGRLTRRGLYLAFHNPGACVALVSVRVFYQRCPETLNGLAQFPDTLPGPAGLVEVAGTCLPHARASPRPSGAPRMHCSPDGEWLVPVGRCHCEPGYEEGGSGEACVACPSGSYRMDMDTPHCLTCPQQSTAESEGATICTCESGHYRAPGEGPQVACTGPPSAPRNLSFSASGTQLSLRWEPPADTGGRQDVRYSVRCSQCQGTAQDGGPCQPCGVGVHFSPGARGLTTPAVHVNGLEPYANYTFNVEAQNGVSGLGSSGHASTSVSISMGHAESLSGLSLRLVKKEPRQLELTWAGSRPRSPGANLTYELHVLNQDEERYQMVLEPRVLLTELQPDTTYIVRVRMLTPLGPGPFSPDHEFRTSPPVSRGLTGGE

T3: human EphB3 extracellular region-SEAP-His protein (human, UniProt P54753 34-559)
T3 construct: extracellular domain; also called hEphB3-SEAP-His
T3 sequence (looked up): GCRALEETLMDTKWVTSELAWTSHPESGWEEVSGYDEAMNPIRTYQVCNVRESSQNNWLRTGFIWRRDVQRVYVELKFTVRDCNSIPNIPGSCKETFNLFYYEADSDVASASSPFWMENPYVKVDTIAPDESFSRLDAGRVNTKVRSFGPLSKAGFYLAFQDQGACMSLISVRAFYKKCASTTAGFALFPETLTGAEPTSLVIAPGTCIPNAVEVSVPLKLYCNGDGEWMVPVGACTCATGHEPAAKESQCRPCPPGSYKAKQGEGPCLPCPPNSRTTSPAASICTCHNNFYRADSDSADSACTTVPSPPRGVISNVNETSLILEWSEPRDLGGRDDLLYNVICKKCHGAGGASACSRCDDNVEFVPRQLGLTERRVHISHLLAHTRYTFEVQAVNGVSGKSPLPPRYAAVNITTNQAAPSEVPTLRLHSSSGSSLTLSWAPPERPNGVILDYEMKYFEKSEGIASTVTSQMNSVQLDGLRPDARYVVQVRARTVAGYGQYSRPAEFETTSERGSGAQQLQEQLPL

T4: human EphB2 extracellular region-SEAP-His protein (human, UniProt P29323 19-543)
T4 construct: extracellular domain; also called hEphB2-SEAP-His
T4 sequence (looked up): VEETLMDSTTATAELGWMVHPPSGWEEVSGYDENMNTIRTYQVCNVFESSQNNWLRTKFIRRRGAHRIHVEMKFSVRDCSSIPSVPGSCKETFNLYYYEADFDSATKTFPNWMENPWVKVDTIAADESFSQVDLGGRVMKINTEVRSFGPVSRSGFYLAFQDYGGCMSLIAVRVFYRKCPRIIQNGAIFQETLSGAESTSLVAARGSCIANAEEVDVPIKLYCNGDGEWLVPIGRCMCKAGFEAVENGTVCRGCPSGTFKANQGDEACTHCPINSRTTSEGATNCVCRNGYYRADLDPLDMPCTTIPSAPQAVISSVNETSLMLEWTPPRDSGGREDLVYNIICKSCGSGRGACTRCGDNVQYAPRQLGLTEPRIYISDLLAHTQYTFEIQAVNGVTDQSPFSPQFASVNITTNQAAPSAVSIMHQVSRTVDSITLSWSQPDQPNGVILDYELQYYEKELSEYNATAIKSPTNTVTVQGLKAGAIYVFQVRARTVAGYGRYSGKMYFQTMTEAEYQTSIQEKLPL

B1: humanized antibody No. 138 (antibody, human IgG2)
heavy: QIQLVQSGSELKKPGASVKVSCKASGYTFTDYSMHWVRQAPGQGLKWMGWINTETGEPTYAQGFTGRFVFSLDTSVSTAYLQISSLKAEDTAVYYCARIPLYYYGSRYWYFDVWGQGTTVTVSSASTKGPSVFPLAPSSRSTSESTAALGCLVKDYFPEPVTVSWNSGALTSGVHTFPAVLQSSGLYSLSSVVTVPSSNFGTQTYTCNVDHKPSNTKVDKTVERKSCVECPPCPAPPAAAPSVFLFPPKPKDTLMISRTPEVTCVVVDVSHEDPEVQFNWYVDGVEVHNAKTKPREEQFNSTFRVVSVLTVVHQDWLNGKEYKCKVSNKGLPAPIEKTISKTKGQPREPQVYTLPPSREEMTKNQVSLTCLVKGFYPSDIAVEWESNGQPENNYKTTPPMLDSDGSFFLYSKLTVDKSRWQQGNVFSCSVMHEALHNHYTQKSLSLSPG
light: DIQMTQSPSSLSASVGDRVTITCRASENIYRNLAWYQQKPGKAPKLLVYAATNLADGVPSRFSGSGSGTDYTLTISSLQPEDFATYYCQHFWGTPWTFGQGTKVEIKRTVAAPSVFIFPPSDEQLKSGTASVVCLLNNFYPREAKVQWKVDNALQSGNSQESVTEQDSKDSTYSLSSTLTLSKADYEKHKVYACEVTHQGLSSPVTKSFNRGEC
notes: human Ig kappa; also called L1-4/HA4
B2: humanized antibody No. 152 (antibody, human IgG2)
heavy: B1 heavy with I2V, K46E
light: B1 light with V48L, P80S
notes: human Ig kappa; also called L1-5/HA1
B3: humanized antibody No. 142 (antibody, human IgG2)
heavy: B1 heavy with I2V, Q62D, G63D, T65K
light: B1 light
notes: human Ig kappa; also called L1-4/HK2
B4: humanized antibody No. 141 (antibody, human IgG2)
heavy: B1 heavy with I2V, K46E, Q62D, G63D, T65K
light: B1 light
notes: human Ig kappa; also called L1-4/HK1
B5: humanized antibody No. 139 (antibody, human IgG2)
heavy: B1 heavy with I2V, K46E
light: B1 light
notes: human Ig kappa; also called L1-4/HA1
B6: humanized antibody No. 151 (antibody, human IgG2)
heavy: B1 heavy
light: B1 light with V48L, P80S
notes: human Ig kappa; also called L1-5/HA4
B7: humanized antibody No. 145 (antibody, human IgG2)
heavy: B1 heavy with I2V, Q62D, G63D, T65K
light: B1 light with V48L, P80S
notes: human Ig kappa; also called L1-5/HK2
B8: humanized antibody No. 143 (antibody, human IgG2)
heavy: B1 heavy with Q62D, G63D, T65K
light: B1 light
notes: human Ig kappa; also called L1-4/HK4
B9: humanized antibody No. 153 (antibody, human IgG2)
heavy: B1 heavy with I2V
light: B1 light with V48L, P80S
notes: human Ig kappa; also called L1-5/HA2
B10: humanized antibody No. 154 (antibody, human IgG2)
heavy: B1 heavy with I2V, K46E, Q62D, G63D, T65K
light: B1 light with V48L, P80S
notes: human Ig kappa; also called L1-5/HK1
B11: humanized antibody No. 144 (antibody, human IgG2)
heavy: B1 heavy with I2V, K46E, Q62D, G63D, T65K
light: B1 light with K45Q, V48L
notes: human Ig kappa; also called L1-6/HK1

Molecular target: T1, human EphA6 extracellular …
Assay: ELISA

A450 as % of hEphA4-SEAP-His | Binder
10.2% | B1
8.3% | B2
9.7% | B3
9% | B4
10% | B5
9.9% | B6
8.6% | B7
9.9% | B8
8.7% | B9
8.4% | B10
8.1% | B11

Molecular target: T2, human EphA1 extracellular …
Assay: ELISA

A450 as % of hEphA4-SEAP-His | Binder
5.2% | B1
5.8% | B2
5.6% | B3
5.3% | B4
5.7% | B5
7.1% | B6
6.7% | B7
6% | B8
6.3% | B9
6.4% | B10
5.6% | B11

Molecular target: T5, human EphA4 extracellular region-SEAP-His protein (human, UniProt P54764 20-547)
T5 construct: also called hEphA4-SEAP-His
T5 sequence (P54764 20-547): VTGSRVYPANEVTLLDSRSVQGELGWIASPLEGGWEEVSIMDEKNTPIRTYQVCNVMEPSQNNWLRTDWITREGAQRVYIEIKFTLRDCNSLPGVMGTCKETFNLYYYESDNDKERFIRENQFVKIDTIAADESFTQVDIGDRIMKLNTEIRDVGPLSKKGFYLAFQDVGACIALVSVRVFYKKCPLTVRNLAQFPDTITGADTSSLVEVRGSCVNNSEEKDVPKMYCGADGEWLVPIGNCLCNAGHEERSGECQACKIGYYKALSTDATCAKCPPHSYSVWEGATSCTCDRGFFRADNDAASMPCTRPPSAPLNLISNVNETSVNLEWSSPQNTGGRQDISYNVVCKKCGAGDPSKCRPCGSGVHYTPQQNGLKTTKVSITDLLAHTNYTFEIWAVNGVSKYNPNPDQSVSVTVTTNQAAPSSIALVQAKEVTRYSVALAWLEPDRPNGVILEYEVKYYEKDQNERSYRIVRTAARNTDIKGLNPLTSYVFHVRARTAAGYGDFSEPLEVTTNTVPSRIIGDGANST
Assay: ELISA

A450 as % of hEphA4-SEAP-His | Binder
100% | B1
100% | B2
100% | B3
100% | B4
100% | B5
100% | B6
100% | B7
100% | B8
100% | B9
100% | B10
100% | B11

Molecular target: T3, human EphB3 extracellular …
Assay: ELISA

A450 as % of hEphA4-SEAP-His | Binder
5.1% | B1
6% | B2
5.6% | B3
5.2% | B4
5.6% | B5
7.3% | B6
6.7% | B7
5.9% | B8
5.9% | B9
6.2% | B10
5.8% | B11

Molecular target: SEAP-His (UniProt P05187 23-511)
Sequence (P05187 23-511): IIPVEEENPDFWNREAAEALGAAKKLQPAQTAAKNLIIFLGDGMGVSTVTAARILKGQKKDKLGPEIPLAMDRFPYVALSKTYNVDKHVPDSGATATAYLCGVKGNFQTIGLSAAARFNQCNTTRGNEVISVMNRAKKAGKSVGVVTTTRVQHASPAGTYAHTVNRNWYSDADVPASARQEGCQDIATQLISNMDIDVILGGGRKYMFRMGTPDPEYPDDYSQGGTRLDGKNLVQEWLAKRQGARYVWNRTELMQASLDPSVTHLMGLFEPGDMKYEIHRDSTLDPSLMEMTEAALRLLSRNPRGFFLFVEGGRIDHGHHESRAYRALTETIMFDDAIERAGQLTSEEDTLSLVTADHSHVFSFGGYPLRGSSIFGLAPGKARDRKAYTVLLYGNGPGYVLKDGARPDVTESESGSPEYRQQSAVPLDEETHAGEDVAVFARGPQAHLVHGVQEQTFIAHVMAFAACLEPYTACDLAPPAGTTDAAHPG
Assay: ELISA

A450 as % of hEphA4-SEAP-His | Binder
5.1% | B1
5.4% | B2
5.8% | B3
5% | B4
5.7% | B5
6.8% | B6
6.4% | B7
6.3% | B8
5.9% | B9
6.3% | B10
5.7% | B11

Molecular target: T4, human EphB2 extracellular …
Assay: ELISA

A450 as % of hEphA4-SEAP-His | Binder
5.2% | B1
5.8% | B2
5.6% | B3
5.2% | B4
5.7% | B5
7% | B6
6.7% | B7
5.8% | B8
5.9% | B9
6.2% | B10
5.7% | B11
